Two substances from publication PMC3132758 can be followed below.

A word on the stoichiometry N: it is the number of molecules, sites or subunits per partner or assembly.

Assay [1] deals with CdvC from Metallosphaera sedula (Vps4-like AAA ATPase) (Metallosphaera sedula). Description: SEC; CdvC alone at >75 µM (180 µM) on Superose 6; single high molecular weight peak.
Assay [2] deals with CdvB from Metallosphaera sedula (ESCRT-III-like), full length (Metallosphaera sedula). Kind of assay: SEC; CdvB and CdvC mixed, 20 µM each, on Superose 6; fractions analysed by SDS-PAGE; void volume peak holds both.

The substance “CdvC from Metallosphaera sedula (Vps4-like AAA ATPase) (enzyme)” showed a stoichiometry N in assay [1] of 12. For “CdvC from Metallosphaera sedula (Vps4-like AAA ATPase)”, in assay [2], the stoichiometry N is 1.
